Measured values reported in IntAct's records for PubMed 12393858.

Target: ipp2_human PPP1R2 (UniProt P41236)
Sequence (P41236 whole entry): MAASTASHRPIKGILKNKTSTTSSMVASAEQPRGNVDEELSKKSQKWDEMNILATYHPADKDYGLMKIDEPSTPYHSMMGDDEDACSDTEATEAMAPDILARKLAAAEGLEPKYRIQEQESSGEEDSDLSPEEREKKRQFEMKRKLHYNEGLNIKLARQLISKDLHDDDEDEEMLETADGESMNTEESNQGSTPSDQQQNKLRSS

effect of a mutation on the interaction: disrupting interaction
Substance: Serine/threonine-protein kinase LMTK2 (Homo sapiens), Q8IWU2 V1356A;F1358A
